This note sets out measurements from article PMC4775226, “Active and water-soluble form of lipidated Wnt protein is maintained by a serum glycoprotein afamin/α-albumin” (eLife, 2016).

Experiment [1] addresses T1, TARGET-tagged mouse Wnt3a (mouse, UniProt P27467 19-352).
T1 construct: Construct design (N-terminal region from the initiation Met) is in Supplementary file 1; also called Tg-Wnt3a; tagged Wnt3a; source: purified on P20.1-Sepharose (peptide elution), SEC; not shown: TARGET (Tg) tag, N-terminal, kept
The experiment in a line: SEC; immunoaffinity-purified Wnt preparation on Superdex 200 10/300GL in TBS, no detergent; fractions on nonreducing SDS-PAGE, Coomassie stain and immunoblots. The settings on record: both partners purified. A general note: SEC sorts molecules by how far they enter the pores of the column.

In another experiment the target is T2, Tg-tagged human afamin (human, UniProt P43652 22-599).
T2 construct: human afamin with a long (36 residues) N-terminal tag peptide; cDNA was a gift from Luc Bélanger; built by the same strategy as the tagged Wnts (tag, TEV site); also called Tg-hAFM; Tg-AFM; source: Expi293F cells, transiently co-transfected with PA-tagged Wnts, in serum-free culture medium; not shown: TARGET (Tg) tag, N-terminal, kept
T2 sequence (looked up): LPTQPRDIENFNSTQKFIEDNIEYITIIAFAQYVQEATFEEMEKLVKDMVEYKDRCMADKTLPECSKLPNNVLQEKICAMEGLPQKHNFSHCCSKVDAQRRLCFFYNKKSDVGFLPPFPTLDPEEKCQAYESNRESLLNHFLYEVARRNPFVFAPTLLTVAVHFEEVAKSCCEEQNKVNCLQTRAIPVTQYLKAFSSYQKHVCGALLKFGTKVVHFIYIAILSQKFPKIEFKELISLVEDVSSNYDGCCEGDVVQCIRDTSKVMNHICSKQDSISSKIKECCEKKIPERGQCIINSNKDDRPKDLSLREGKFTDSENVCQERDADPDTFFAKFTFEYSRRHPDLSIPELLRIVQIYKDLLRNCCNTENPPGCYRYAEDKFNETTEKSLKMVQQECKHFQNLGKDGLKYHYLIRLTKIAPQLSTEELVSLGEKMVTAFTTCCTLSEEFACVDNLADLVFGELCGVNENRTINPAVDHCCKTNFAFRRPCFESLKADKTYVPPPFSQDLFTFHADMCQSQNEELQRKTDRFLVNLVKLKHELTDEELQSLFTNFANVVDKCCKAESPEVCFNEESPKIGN
The experiment is described as follows: co-IP; anti-Tg antibody P20.1-Sepharose, serum-free culture media of Expi293F cells co-transfected with Tg-hAFM and PA-tagged human Wnts; immunoblot with biotinylated NZ-1. The settings on record: partners not purified. Background: Immunoblotting shows a protein as a band on a membrane.

T1 sequence (P27467 19-352): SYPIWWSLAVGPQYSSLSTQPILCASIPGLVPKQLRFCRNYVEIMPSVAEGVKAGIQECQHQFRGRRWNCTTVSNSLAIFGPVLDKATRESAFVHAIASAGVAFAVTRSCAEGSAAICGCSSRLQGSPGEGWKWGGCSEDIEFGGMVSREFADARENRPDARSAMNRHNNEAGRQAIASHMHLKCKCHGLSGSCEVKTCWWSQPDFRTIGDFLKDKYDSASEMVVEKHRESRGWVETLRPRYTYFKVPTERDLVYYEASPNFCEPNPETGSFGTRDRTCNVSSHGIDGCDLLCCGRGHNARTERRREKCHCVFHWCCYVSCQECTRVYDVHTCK

B1: bovine afamin from the serum of the culture medium (natural protein, UniProt G3MYZ3 22-604, looked up)
chain: LPTQPQDVDDVRITQKFIDDNIGYITIIAFAQYIQEASFEEVEMLVKAMTEYRDKCLADRTLPECSKLANEVLLENICAMEGLPQKYNFSHCCHKVDFERRLCFFHNKKADIGLLPPLPTLDPEEKCQTYKNNRESFLNNYVYEVSRRNPFVFAPTLLTVAARFEEMTKTCCEEQEKANCFQTKAEPFIYYLKALSSYQKNACRALMKFGRQILQSINIAILSQKFPKIGFKQLTSLLEDVSSKYDGCCEGDVVQCIRGRSKVMSHICSKQDSISSKIKDCCEKKIPERGECIIYSNKDDRPNDLSLREAKFIESDNVCEKRDADQANFMAEFLYEYSRRHPELSTPELLRIAKVYKDLLKECCNMENPPECYRHAENRFNETTEKSLKIVQRECEHFQNLGKDDLKYHYLINLTKLAPQLSTEELTFLGKEMVMALTTCCTLSEEFACVDNLVDLVLGELCGINENRNINPAVDHCCKTNFAFRRSCFESLEADKTYVPPSTSQGLFTFHADLCQAHNEELQRKKDRFLVNLVKLKPELAGEELWSLLADFTNVVEKCCKAQEPEACFKEESPKLAAKSQAA
notes: bovine afamin, serum-derived; Glycoprotein of about 70 kDa; also called AFM; α-albumin; source: endogenous, fetal calf serum in the culture medium
The stoichiometry N is the number of molecules, sites or subunits per partner or assembly. Turning to B1, the “stoichiometry N” value in experiment [1] turned out to be 1.

B2: PA-tagged human Wnt3 (natural protein, UniProt P56703 22-355, looked up)
chain: GYPIWWSLALGQQYTSLGSQPLLCGSIPGLVPKQLRFCRNYIEIMPSVAEGVKLGIQECQHQFRGRRWNCTTIDDSLAIFGPVLDKATRESAFVHAIASAGVAFAVTRSCAEGTSTICGCDSHHKGPPGEGWKWGGCSEDADFGVLVSREFADARENRPDARSAMNKHNNEAGRTTILDHMHLKCKCHGLSGSCEVKTCWWAQPDFRAIGDFLKDKYDSASEMVVEKHRESRGWVETLRAKYSLFKPPTERDLVYYENSPNFCEPNPETGSFGTRDRTCNVTSHGIDGCDLLCCGRGHNTRTEKRKEKCHCIFHWCCYVSCQECIRIYDVHTCK
For B2, in the experiment with Tg-tagged human afamin, the binding result is “binds”.
